In publication doi:10.1101/2022.07.31.502239, “Structural basis for assembly and lipid-mediated gating of LRRC8A:C volume-regulated anion channels” (bioRxiv, 2022):

Molecular target: the molecule itself
Assay: single molecule pulldown with stepwise photobleaching subunit counting; C-terminal EGFP-HA fusion expressed alone in LRRC8 knockout HEK293 cells, GDN extract used directly, immobilised on passivated coverslips with biotinylated anti-HA, TIRF imaging of EGFP bleaching steps

B1: HVCN1 with C-terminal EGFP and HA-tag (natural protein, UniProt Q96D96 1-273, looked up)
chain: MATWDEKAVTRRAKVAPAERMSKFLRHFTVVGDDYHAWNINYKKWENEEEEEEEEQPPPTPVSGEEGRAAAPDVAPAPGPAPRAPLDFRGMLRKLFSSHRFQVIIICLVVLDALLVLAELILDLKIIQPDKNNYAAMVFHYMSITILVFFMMEIIFKLFVFRLEFFHHKFEILDAVVVVVSFILDIVLLFQEHQFEALGLLILLRLWRVARIINGIIISVKTRSERQLLRLKQMNVQLAAKIQHLEFSCSEKEQEIERLNKLLRQHGLLGEVN
notes: HVCN1 (HV1) voltage-gated proton channel; Control for subunit counting; also called HV1-EGFP; HV1; source: LRRC8 knockout HEK293 cells, transfected, GDN detergent extract of membranes; not shown: EGFP, C-terminal, kept; HA, C-terminal, kept
- stoichiometry N: 2
